Like-named read-outs stand apart in the source and are kept apart here.

Targets include NaV1.2 (UniProt P04775); NaV1.3 (UniProt P08104); NaV1.4 (UniProt P15390); NaV1.5 (UniProt Q14524); NaV1.6 (UniProt Q9WTU3); NaV1.7 (UniProt Q15858).
Assay [1] concerns the target NaChBac (Bacillus halodurans).
Assay [2] addresses NaChBac F103A (Bacillus halodurans).
Assay [3] has as its target NaChBac Q107A (Bacillus halodurans).
Assay [4] has as its target NaChBac V109A (Bacillus halodurans).
For assay [5], the target named is NaChBac/F108A (Bacillus halodurans).
Assay [6] deals with NaChBac/G105A (Bacillus halodurans).
Assay [7] addresses NaChBac (Bacillus halodurans). This is another data set of the same source.

Sequence of UniProt P15390 (P15390 whole entry): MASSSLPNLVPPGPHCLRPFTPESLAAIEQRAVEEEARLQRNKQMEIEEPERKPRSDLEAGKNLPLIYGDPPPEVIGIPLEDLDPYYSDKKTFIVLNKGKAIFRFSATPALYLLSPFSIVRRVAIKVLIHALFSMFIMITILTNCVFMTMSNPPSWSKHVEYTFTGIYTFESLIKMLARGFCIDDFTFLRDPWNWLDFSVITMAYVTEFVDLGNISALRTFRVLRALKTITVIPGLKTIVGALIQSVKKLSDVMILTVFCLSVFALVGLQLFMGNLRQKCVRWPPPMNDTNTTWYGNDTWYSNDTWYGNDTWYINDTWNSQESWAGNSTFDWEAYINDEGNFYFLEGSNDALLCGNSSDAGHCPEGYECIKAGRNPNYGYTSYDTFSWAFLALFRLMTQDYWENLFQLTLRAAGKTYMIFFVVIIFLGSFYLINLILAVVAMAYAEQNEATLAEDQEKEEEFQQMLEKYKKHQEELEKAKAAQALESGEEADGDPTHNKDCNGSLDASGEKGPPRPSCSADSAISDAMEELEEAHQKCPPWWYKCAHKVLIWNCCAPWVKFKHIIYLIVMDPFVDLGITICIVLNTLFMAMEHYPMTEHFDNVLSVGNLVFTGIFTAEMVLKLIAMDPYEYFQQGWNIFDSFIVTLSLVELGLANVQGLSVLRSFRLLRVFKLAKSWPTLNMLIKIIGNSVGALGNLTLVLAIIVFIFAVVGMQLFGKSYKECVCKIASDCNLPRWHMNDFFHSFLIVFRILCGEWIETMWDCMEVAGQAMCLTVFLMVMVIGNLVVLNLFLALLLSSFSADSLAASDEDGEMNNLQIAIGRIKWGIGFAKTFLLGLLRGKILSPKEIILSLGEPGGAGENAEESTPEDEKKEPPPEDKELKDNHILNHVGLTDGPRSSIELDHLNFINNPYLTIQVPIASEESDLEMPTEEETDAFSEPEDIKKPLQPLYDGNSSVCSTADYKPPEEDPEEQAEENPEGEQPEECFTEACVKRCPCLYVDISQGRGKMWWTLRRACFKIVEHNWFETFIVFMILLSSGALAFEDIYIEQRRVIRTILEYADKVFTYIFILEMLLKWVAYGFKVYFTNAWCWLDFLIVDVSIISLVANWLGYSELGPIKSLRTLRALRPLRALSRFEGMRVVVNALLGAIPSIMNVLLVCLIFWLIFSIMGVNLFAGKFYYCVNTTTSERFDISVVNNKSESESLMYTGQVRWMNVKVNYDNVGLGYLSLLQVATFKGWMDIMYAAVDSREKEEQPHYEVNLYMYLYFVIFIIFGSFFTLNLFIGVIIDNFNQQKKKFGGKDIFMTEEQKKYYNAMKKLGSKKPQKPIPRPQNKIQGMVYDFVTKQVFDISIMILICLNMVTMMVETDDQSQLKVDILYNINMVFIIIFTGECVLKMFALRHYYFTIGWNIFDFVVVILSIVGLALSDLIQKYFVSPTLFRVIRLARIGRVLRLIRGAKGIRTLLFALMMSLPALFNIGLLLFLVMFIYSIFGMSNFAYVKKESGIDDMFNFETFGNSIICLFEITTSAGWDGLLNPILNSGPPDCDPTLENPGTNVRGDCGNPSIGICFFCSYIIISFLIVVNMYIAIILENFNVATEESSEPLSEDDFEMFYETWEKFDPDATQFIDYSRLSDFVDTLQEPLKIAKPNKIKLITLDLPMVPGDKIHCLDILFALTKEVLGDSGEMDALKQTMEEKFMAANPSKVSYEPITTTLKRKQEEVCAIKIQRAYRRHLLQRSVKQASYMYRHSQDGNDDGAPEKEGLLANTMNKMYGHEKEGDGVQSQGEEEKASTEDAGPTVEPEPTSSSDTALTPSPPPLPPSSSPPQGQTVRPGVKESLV
Sequence of UniProt Q9WTU3 (Q9WTU3 whole entry): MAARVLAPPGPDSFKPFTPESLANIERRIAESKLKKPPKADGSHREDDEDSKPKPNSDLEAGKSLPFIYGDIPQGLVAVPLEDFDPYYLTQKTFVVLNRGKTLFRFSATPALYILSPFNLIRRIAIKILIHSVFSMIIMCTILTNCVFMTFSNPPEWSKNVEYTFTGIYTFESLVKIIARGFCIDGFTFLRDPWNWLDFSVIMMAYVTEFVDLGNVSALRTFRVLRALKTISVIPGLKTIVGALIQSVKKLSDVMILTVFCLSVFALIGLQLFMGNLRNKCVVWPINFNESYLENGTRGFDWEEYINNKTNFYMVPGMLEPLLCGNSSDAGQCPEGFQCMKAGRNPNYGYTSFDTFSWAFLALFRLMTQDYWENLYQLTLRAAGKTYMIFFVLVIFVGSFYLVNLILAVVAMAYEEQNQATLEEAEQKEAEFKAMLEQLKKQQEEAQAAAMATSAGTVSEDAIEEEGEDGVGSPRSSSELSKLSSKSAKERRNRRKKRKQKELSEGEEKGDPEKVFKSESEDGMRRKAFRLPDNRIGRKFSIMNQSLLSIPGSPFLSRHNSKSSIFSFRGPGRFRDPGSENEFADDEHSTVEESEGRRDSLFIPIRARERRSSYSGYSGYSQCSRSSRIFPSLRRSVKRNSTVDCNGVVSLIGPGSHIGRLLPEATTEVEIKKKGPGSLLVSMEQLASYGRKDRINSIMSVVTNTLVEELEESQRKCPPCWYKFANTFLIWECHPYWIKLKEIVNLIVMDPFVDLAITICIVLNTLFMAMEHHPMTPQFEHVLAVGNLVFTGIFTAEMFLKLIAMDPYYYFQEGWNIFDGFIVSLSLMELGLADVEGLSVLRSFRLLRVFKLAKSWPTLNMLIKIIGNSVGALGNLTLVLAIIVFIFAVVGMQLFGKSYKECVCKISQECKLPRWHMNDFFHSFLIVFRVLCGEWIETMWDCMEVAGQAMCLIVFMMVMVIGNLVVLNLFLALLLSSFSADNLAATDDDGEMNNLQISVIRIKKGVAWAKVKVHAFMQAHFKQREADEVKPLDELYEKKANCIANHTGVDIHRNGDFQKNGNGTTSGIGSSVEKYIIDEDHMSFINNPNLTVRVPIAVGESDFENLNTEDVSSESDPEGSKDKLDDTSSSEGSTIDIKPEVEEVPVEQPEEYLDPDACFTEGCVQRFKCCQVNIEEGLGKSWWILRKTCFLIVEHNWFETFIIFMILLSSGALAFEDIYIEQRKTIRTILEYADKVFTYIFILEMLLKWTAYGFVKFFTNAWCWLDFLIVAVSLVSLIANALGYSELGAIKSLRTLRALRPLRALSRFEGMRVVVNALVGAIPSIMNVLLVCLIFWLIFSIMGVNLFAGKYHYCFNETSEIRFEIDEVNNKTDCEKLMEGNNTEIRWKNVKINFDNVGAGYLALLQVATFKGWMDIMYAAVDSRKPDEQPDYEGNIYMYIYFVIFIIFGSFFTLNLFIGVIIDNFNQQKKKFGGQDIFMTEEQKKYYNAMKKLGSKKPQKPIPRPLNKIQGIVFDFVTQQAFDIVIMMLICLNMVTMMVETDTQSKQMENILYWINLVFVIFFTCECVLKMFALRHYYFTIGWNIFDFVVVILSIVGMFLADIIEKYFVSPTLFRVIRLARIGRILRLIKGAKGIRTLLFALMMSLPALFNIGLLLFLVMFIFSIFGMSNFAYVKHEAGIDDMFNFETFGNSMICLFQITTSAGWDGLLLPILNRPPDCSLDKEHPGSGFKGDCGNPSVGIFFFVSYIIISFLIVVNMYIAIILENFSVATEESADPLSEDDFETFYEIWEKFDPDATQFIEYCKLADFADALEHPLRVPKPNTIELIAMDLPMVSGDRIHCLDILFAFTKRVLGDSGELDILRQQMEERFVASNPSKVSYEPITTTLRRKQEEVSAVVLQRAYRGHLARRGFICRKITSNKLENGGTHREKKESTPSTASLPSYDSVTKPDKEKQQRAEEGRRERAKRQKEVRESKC

As to “JZTx-14 (from UniProt B1P1C0 30-62) (peptide)”, the IC50 of inhibition of the peak current, whole-cell patch clamp, dose–response curve amounted to 194 nM in the assay with NaV1.2; 426 nM with NaV1.3; 290 nM with NaV1.4; 478 nM in the assay with NaV1.5; 159 nM with NaV1.6; 189 nM with NaV1.7. This substance also yielded an IC50 of inhibition of the peak current, whole-cell patch clamp, dose–response curve with NaV1.8/1.7L5 channel of 824 nM. Also, the IC50 of inhibition of the current, whole-cell patch clamp, dose–response curve in [1] was 320 nM; in assay [2], 833 nM; in assay [3], 810 nM; in assay [4] it was 1370 nM; in assay [5], 3470 nM; in assay [6], 653 nM.
Take JZTx-27 (peptide): the IC50 of inhibition of the current, whole-cell patch clamp, dose–response curve in [7] came out at 46.7 nM; in assay [5], 117 nM.

Values taken from article PMC6215091.
